Experimental data as given in article PMC4892741, “Two shikimate dehydrogenases, VvSDH3 and VvSDH4, are involved in gallic acid biosynthesis in grapevine” (Journal of Experimental Botany, 2016).

B1: VvSDH3 (Vitis vinifera) (protein)
chain: MGSLPFTVSDLQTSVSGVRSNPTLLCTPLMGTTVEQMLTEMRKAKEIGADIVEIRLDCLRNFSPAQDLQILIKQSPLPTLVTYRPIWEGGQYEGDENKRQDALRLAMELGASYIDVELEVAHEFNNSIYGKKPQNFKVIVSSHNFHNTPSTEAIGNLVARIQASGADIVKIATTALDITDVARVLQVTVHSQVPTIAIVMGERGLISRLLSPKFGGYLTYGALEAGAISAPGQPTAKDLLDLYNFRLVKPDTKVYGIIGKPVGHSKSPLLFNAAFKKVGLNAVYVHLLVDDVEKFFNTYSAPDFISGCSCTIPHKEVAIKCMDTIDPIARKIGAINNIVRKPDGKLTAFNTDYIGAIEAIEDGLRESNGSSPAVGSPLAGKLFVVLGAGGAGKSLAYGAKEKGARVVVANRTFERAKDLADKVGGQALTLAEIENFHPEEGMILANTTSVGMKPKINDTPIPKHALKHYSLVFDAIYTPKDTRLLREAKESGKIIVYGTEMLIRQGFEQYKNFTGLPAPEELFRELMSKHA
notes: E. coli BL21(DE3); GST tag removed after purification
B2: VvSDH4 (Vitis vinifera) (protein)
chain: GARRNSTLICVPIMADSVDQMLGQIRKAKEVGGDLVEIRLDYLKNFSPRQDLQFLVKQSPLPTLVTYRPTWEGGQYDGDEGKRLDALRLAIELGADYIDVELQVAPEFINSIQGKTSGKVKIIVSSHNYQNTPSAEELGNLVARIQATGADIVKIATTALDITDCARIFQVLAHSQVPTIGIAMAERGLISRILSAKFGSYLTFGSLEAGVVSAPGQPTVKDLLDLYNFRQIGPDTKVHGVIGKPIGHSKSPHLYNSAFKSVGFNGIYLPLLVDSVKNFLATYSSPDFVGYSYTIPHKEDGLRCCDEIDPIAQAIGAISCMIRRPADGKLMGYNVDYLGAIAAIEEGLRASNGTTSVGSPLAGKLFVVIGAGGAGKALAYGGKEKGARVVVANRTFEKAKELASKVGGEAMTLAELENFHPEDGMILANTTSVGMKPNIDNTPLSKKALSRYSLVFDAIYTPKLTRLLREAQESGAIIVYGTEMFINQAFVQFERFTGLPAPKELIREVLVRNT
notes: partial cDNA lacking the first 17 aa (putative transit peptide); E. coli BL21(DE3); GST tag removed
B3: VvSDH1 (Vitis vinifera) (protein)
chain: MESGGMSKNSTLICVPIMGETIEKMVVDMSKAKTSGADLVEVRLDTLKRFNPRQDLEVLIRKCPLPTLFTYRPKWEGGQYEGDENSRRDALRLAMELGADYVDIELKVAHEFINSIHGRKPEKFKVIVSSHNYQNTPSVEDLGNLVVSIQATGADIVKIATTALEITDVARIFQITVHSQVPVIGLVMGERGLISRILCPKFSGYLTFGSLEPGIVSAPGQPTIKDLLNLYNFRQLGPDTKVFGVIGKPVSHSKSPHLYNEAFKSVGFNGVYVHLLVDDIAKFFHTYSAADFAGFSCTIPHKEAALKCCDEVSPVAKSIGAVNCIIRRPSDGKLFGYNTDYVGAISAIEDGLRDLHKISSTSGSPLAGKLFVVIGAGGAGKALAYGAKEKGARVVIANRTYARARELADAVGGDALSLADLNNFHPENGMILANTTSIGMQPKVDETPISKHALKYYSLVFDAIYTPKITRLLREAQESGATIVTGLEMFIGQAYEQFERFTGLPAPKELFKQFISNLQ
notes: as for B1

Assays:
Assay in all cases: purified protein
Type in all cases: biochemical, Vitis vinifera
[1] = substrate: NC(=O)c1ccc[n+]([C@@H]2O[C@H](COP(=O)(O)OP(=O)(O)OC[C@H]3O[C@@H](n4cnc5c(N)ncnc54)[C@H](OP(=O)(O)O)[C@@H]3O)[C@@H](O)[C@H]2O)c1; details: 4 mM shikimate, pH 9, 100 mM Bis-Tris Propane HCl, 30 °C
[2] = substrate: O=C(O)C1=CC(=O)[C@@H](O)[C@H](O)C1; details: 0.4 mM NADPH, pH 7, 100 mM Bis-Tris Propane HCl, 30 °C, 3-DHS reduction, pH 7.0
[3] = substrate: O=C(O)C1=C[C@@H](O)[C@@H](O)[C@H](O)C1; details: 2 mM NADP+, pH 9, 100 mM Bis-Tris Propane HCl, 30 °C

| Protein | Km ([1]; pH 9.0, varied: cofactor) | Vmax ([1]; pH 9.0, varied: cofactor) | kcat ([1]; pH 9.0, varied: cofactor) | kcat/Km ([1]; pH 9.0, varied: cofactor) | Km [2] | Vmax [2] | kcat [2] | kcat/Km [2] | Km ([3]; pH 9.0) | Vmax ([3]; pH 9.0) | kcat ([3]; pH 9.0) | kcat/Km ([3]; pH 9.0) | Km ([1]; varied: cofactor) | Vmax ([1]; varied: cofactor) | kcat ([1]; varied: cofactor) | kcat/Km ([1]; varied: cofactor) | Km [3] | Vmax [3] | kcat [3] | kcat/Km [3] |
| --- | --- | --- | --- | --- | --- | --- | --- | --- | --- | --- | --- | --- | --- | --- | --- | --- | --- | --- | --- | --- |
| B1 | 38.4 ± 11.9 µM | 27 µmol/min/mg | 26.1 ± 2.68 s⁻¹ | 680000 M⁻¹ s⁻¹ | 46.3 ± 18.2 µM | 9 µmol/min/mg | 8.62 ± 0.93 s⁻¹ | 186000 M⁻¹ s⁻¹ | 27.3 ± 10.4 µM | 5.4 µmol/min/mg | 5.16 ± 0.56 s⁻¹ | 189000 M⁻¹ s⁻¹ | – | – | – | – | – | – | – | – |
| B2 | – | – | – | – | – | – | – | – | – | – | – | – | 53.8 ± 5.8 µM | 30 µmol/min/mg | 28.9 ± 1.06 s⁻¹ | 537000 M⁻¹ s⁻¹ | 146.8 ± 60 µM | 27.6 µmol/min/mg | 26.1 ± 4.97 s⁻¹ | 178000 M⁻¹ s⁻¹ |
| B3 | 214.7 ± 56.4 µM | 254 µmol/min/mg | 239 ± 26.3 s⁻¹ | 1.11e+06 M⁻¹ s⁻¹ | 156.9 ± 31.3 µM | 102 µmol/min/mg | 95.8 ± 10.2 s⁻¹ | 611000 M⁻¹ s⁻¹ | 90 ± 16 µM | 100 µmol/min/mg | 94.5 ± 7.2 s⁻¹ | 1.05e+06 M⁻¹ s⁻¹ | – | – | – | – | – | – | – | – |
